Assays:
[1] = molecular target: T1, SARS-CoV-2 prefusion S ectodomain (BEI NR52394) (SARS-CoV-2 Wuhan-Hu-1, UniProt P0DTC2, stabilised); assay: BLI
[2] = molecular target: T1, SARS-CoV-2 prefusion S ectodomain (BEI …); assay: cell-based or functional assay
[3] = molecular target: T1, SARS-CoV-2 prefusion S ectodomain (BEI …); assay: cryo-EM structure

Binder	binding result [1]	further results
mAb 52 IgG (antibody, V domains shown) VH: QVQLVQSGAEVKKPGSSVKVSCKASGYTFTSYGISWVRQAPGQGLEWMGGIIPMFGTTNYAQKFQGRVTITADKSTSTAYMELSSLRSEDTAVYYCARDRGDTIDYWGQGTLVTVSS VL: DIQMTQSPSSLSASVGDRVTITCRASQGISNNLNWYQQKPGKAPKLLIYAASSLESGVPSRFSGSGSGTDFTLTISSLQPEDFATYYCQQGNGFPLTFGPGTKVDIK	binds	–
52 Multabody (other) VH: QVQLVQSGAEVKKPGSSVKVSCKASGYTFTSYGISWVRQAPGQGLEWMGGIIPMFGTTNYAQKFQGRVTITADKSTSTAYMELSSLRSEDTAVYYCARDRGDTIDYWGQGTLVTVSS VL: DIQMTQSPSSLSASVGDRVTITCRASQGISNNLNWYQQKPGKAPKLLIYAASSLESGVPSRFSGSGSGTDFTLTISSLQPEDFATYYCQQGNGFPLTFGPGTKVDIK	binds	–
mAb 298 IgG (antibody, V domains shown) VH: QVQLVQSGAEVKKPGASVKVSCKASGGTFSTYGISWVRQAPGQGLEWMGWISPNSGGTDLAQKFQGRVTMTRDTSTSTVYMELSSLRSEDTAVYYCASDPRDDIAGGYWGQGTLVTVSS VL: not shown	–	IC50 of neutralization of SARS-CoV-2 pseudovirus (PsV) [2]: ~30 µg/mL
mAb 236 IgG (antibody, V domains shown) VH: QVQLVQSGAEVKKPGASVKVSCKASGGTFTSYGINWVRQAPGQGLEWMGWMNPNSGNTGYAQKFQGRVTMTRDTSTSTVYMELSSLRSEDTAVYYCASRGIQLLPRGMDVWGQGTTVTVSS VL: not shown	binds	–
mAb 324 IgG (antibody, V domains shown) VH: QVQLVQSGAEVKKPGASVKVSCKASGGTFNNYGISWVRQAPGQGLEWMGWMNPNSGNTGYAQKFQGRVTMTRDTSTSTVYMELSSLRSEDTAVYYCARVGDYGDYIVSPFDLWGRGTLVTVSS VL: DIQMTQSPSSLSASVGDRVTITCRASQSITTYLNWYQQKPGKAPKLLIYDASNLETGVPSRFSGSGSGTDFTLTISSLQPEDFATYYCQQSYSTPPTFGQGTKVEIK	binds	–
324 Multabody (other) VH: QVQLVQSGAEVKKPGASVKVSCKASGGTFNNYGISWVRQAPGQGLEWMGWMNPNSGNTGYAQKFQGRVTMTRDTSTSTVYMELSSLRSEDTAVYYCARVGDYGDYIVSPFDLWGRGTLVTVSS VL: DIQMTQSPSSLSASVGDRVTITCRASQSITTYLNWYQQKPGKAPKLLIYDASNLETGVPSRFSGSGSGTDFTLTISSLQPEDFATYYCQQSYSTPPTFGQGTKVEIK	binds	–
Fab 324 (Fab, V domains shown) VH: QVQLVQSGAEVKKPGASVKVSCKASGGTFNNYGISWVRQAPGQGLEWMGWMNPNSGNTGYAQKFQGRVTMTRDTSTSTVYMELSSLRSEDTAVYYCARVGDYGDYIVSPFDLWGRGTLVTVSS VL: DIQMTQSPSSLSASVGDRVTITCRASQSITTYLNWYQQKPGKAPKLLIYDASNLETGVPSRFSGSGSGTDFTLTISSLQPEDFATYYCQQSYSTPPTFGQGTKVEIK	–	binding result [3]: binds

From article doi:10.1101/2020.10.15.341636 (bioRxiv, 2020)
